{"source": "paper PMC9430589", "test_in_all_cases": "EMSA", "settings_in_all_cases": "EMSA: 20 mM Tris-HCl pH 8.0, 1 mM MgCl2, 20 mM KCl, 10 mM Na phosphate pH 8.0, 10% glycerol, 500 nM heparin, 1 nM RNA, 37 C 1 h (PNPase: TMK, 50 mM Tris-HCl pH …)", "key": {"[1]": {"biological_target": "T1, RhlB (DEAD box RNA helicase) (Deinococcus radiodurans R1) (UniProt Q9RXH8)", "T1 sequence": "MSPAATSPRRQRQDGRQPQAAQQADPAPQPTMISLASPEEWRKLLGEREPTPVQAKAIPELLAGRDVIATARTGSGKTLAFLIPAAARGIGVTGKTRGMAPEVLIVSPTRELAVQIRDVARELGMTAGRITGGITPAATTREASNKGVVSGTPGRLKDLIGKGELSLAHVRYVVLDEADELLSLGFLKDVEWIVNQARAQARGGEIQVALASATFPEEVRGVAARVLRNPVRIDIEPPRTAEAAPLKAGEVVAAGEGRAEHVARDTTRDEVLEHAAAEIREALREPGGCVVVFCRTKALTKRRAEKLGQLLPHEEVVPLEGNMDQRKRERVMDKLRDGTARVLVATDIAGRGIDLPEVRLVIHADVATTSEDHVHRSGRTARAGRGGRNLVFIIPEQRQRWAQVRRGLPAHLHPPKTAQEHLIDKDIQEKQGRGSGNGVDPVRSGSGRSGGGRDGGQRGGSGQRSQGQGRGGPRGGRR"}, "[2]": {"biological_target": "T2, Rho transcription termination factor (Deinococcus radiodurans R1) (UniProt P52153)", "T2 sequence": "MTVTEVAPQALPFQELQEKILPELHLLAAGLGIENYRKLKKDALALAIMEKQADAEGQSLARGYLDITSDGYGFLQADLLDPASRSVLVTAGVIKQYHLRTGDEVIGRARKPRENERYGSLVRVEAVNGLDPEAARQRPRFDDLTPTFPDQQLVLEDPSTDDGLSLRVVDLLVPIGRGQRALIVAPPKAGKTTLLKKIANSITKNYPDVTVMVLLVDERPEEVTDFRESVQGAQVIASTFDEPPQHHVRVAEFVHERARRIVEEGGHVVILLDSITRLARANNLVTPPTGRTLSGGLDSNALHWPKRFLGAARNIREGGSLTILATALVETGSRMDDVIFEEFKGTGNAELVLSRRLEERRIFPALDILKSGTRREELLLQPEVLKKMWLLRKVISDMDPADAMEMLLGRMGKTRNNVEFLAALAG"}, "[3]": {"biological_target": "T3, RpsA (ribosomal protein S1) (Deinococcus radiodurans R1) (UniProt Q9RSY6)", "T3 sequence": "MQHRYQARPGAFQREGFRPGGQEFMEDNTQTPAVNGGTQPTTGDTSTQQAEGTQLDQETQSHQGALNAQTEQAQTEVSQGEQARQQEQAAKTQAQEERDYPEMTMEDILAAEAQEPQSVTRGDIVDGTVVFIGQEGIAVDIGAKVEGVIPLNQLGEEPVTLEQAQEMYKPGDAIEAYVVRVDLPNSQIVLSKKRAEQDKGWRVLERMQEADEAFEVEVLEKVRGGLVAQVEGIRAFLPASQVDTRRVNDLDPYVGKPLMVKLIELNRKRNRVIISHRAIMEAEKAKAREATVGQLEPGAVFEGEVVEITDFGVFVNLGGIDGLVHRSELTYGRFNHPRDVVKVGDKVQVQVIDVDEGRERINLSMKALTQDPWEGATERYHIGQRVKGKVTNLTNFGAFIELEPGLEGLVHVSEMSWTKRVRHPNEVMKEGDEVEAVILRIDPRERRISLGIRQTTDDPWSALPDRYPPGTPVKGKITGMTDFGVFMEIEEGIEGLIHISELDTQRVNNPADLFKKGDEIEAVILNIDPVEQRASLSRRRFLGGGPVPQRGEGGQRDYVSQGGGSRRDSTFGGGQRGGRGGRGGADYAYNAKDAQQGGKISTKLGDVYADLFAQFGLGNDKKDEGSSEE"}}}
{"sequence": "NNNGNNNNNGNNNNNGNNNNNGNN [8-oxoG x4 24-mer (random N, degenerate)]", "values": [{"measurement": "Kd", "setting": "[1]; 8-oxoG at positions 4, 10, 16, 22", "value": 341, "unit": "nM"}]}
{"sequence": "NNNGNNNNNGNNNNNGNNNNNGNN [8-oxoG x2 24-mer (random N, degenerate)]", "values": [{"measurement": "Kd", "setting": "[1]; 8-oxoG at positions 16, 22", "value": 355, "unit": "nM"}]}
{"sequence": "NNNGNNNNNGNNNNNGNNNNNGNN [8-oxoG x3 24-mer (random N, degenerate)]", "values": [{"measurement": "Kd", "setting": "[1]; 8-oxoG at positions 10, 16, 22", "value": 351, "unit": "nM"}]}
{"sequence": "NNNGNNNNNGNNNNNGNNNNNGNN [Ctrl 24-mer (random N, degenerate)]", "values": [{"measurement": "Kd", "setting": "[1]", "value": 3010, "unit": "nM"}, {"measurement": "Kd", "setting": "[2]", "value": 3940, "unit": "nM"}, {"measurement": "Kd", "setting": "[3]", "value": 5440, "unit": "nM"}]}
{"sequence": "NNNGNNNNNGNNNNNGNNNNNGNN [8-oxoG x1 24-mer (random N, degenerate)]", "values": [{"measurement": "Kd", "setting": "[1]; 8-oxoG at position 16", "value": 383, "unit": "nM"}, {"measurement": "Kd", "setting": "[2]; 8-oxoG at position 16", "value": 1880, "unit": "nM"}, {"measurement": "Kd", "setting": "[3]; 8-oxoG at position 16", "value": 1710, "unit": "nM"}]}
